# According to patent US20250250593A1, “METHOD FOR PREPARING ALPHA-BRANCHED BETA'-HYDROXY CARBONYL COMPOUNDS BY ENZYMATIC-CATALYZED REDUCTIVE ALDOL REACTION” (Max-Planck-Gesellschaft zur Förderung der Wissenschaften …, priority 2022, published 2025):
# Where a chain is given by its changes, count along the chain named. Names may count otherwise. “And” between values parts separate entries of the source, which are not always exact repeats. Equal entries are not always repeated.
# T1: Kitasatospora setae crotonyl-CoA carboxylase/reductase (KsCcr), wild type (WT), SEQ ID NO: 1 (Kitasatospora setae, UniProt E4N096)
# T1 construct: gene provided by JGI
# T1 sequence (E4N096 1-445): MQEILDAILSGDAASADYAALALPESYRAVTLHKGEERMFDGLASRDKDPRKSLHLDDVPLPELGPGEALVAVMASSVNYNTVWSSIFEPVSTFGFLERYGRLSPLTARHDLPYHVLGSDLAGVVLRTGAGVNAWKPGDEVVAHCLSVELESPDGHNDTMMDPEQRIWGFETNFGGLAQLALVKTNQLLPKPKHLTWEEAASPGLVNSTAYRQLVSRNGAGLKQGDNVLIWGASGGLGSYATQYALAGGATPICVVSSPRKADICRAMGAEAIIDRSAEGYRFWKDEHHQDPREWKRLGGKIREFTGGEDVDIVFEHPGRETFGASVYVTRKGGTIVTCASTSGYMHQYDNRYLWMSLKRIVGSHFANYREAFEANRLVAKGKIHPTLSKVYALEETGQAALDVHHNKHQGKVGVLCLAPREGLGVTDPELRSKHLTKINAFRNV
# B1: CcCcrPAG: triple variant of Caulobacter crescentus crotonyl-CoA carboxylase/reductase engineered to accept a variety of enoyl-CoAs, SEQ ID NO: 29 (protein)
# chain: MTIQTLETTALKDLYEIGEIPPAFHVPKTMYAWSIRKERHGKPTQAMQVEVVPTWEIGEDEVLVLVMAAGVNYNGVWAALGEPISPLDGHKQPFHIAGSDASGIVWKVGAKVKRWKLGDEVVIHPNQDDGDDEECNGGDPMFSSSQRAWGYETPDGSFAQFCRVQSRQLLPRPKHLTWEESACYTLTLATAYRMLFGHKPHELKPGQNVLVWGASGGLGVFATQLAAVAGANAIGVVSSEDKREFVLSMGAKAVLNRGEFNCWGQLPKVNGPEFNDYMKESRKFGKAIWQITGNKDVDMVFEHPGEQTFPVSVFLVKRGGMVVICAGTTGFNLTMDARFLWMRQKRVQGSHGANLMQASAANQLVIDRRVDPCLSEVFPWDQIPAAHEKMLANQHLPGNMAVLVCAQRPGLRTFEEVQELSGAP
# modifications: CcCcr C125P/I148A/F352G
# B2: CcCcr: wild type crotonyl-CoA carboxylase/reductase obtained from Caulobacter crescentus, SEQ ID NO: 2 (protein)
# chain: B1 chain with P125C, A148I, G352F
# modifications: Caulobacter crescentus CcCCR crotonyl-CoA carboxylase/reductase
# Columns and labels:
# [1] = target: T1, Kitasatospora setae crotonyl-CoA carboxylase/reductase (KsCcr), wild type (WT), SEQ ID NO: 1; format: biochemical; settings: apparent turnover rate with formaldehyde as electrophile; 100 mM K2HPO4 pH 8.0, 30 °C; mean ± standard error
# Description: His-tagged KsCcr and its variants were expressed in E. coli BL21 (DE3). Cells in terrific broth were grown at 37° C. to an OD600=0.8-1.0 upon which expression for 12-16 h at 23° C. was induced by the addition of 500 μM IPTG (Isopropyl-D-β-thiogalactopyranoside). Cells were harvested for 15 min at 7500× g at 4° C. then resuspended in 2 mL of buffer A (50 mM Tris, 500 mM NaCl, 1 M L-Proline, pH=7.5) per gram of pellet. The suspension was treated with […] of DNAse I, 5 mM MgCl2, 10 μg/ml of lysozyme and incubated on ice for 20 min upon which cells were lysed using a sonicator. The lysate was clarified at 45000× g at 4° C. for 40 min and then loaded onto a pre-equilibrated 1 mL HisTrap FF column and washed with 15% buffer B (50 mM Tris, 500 mM NaCl, 1 M L-Proline, 500 mM imidazole, pH=7.5) for 20-30 column volumes until the UV 280 nm reached the baseline level. […]
# Formaldehyde stock solution concentration was determined by following the formation of phenylhydrazone at 368 nm (εPhenylhydrazone,368 nm=6.1 mM^−1 cm^−1). […]
# For reactions in which the full conversion to the aldol product was achieved assays were performed on a Cary-60 UV/Vis spectrophotometer (Agilent) at 30° C. using quartz cuvettes (1 mm, 3 mm or 10 mm path length; Hellma). […] Kinetic parameters for one substrate were determined by varying its concentration while the others were kept constant at 10 times their KM value.
# CcCcrPAG = assay: Substrate promiscuity screen: enoyl-CoAs with aldehydes, LC-MS; format: biochemical, Caulobacter crescentus; settings: six enoyl-CoAs with formaldehyde, acetaldehyde, propionaldehyde, benzaldehyde; with Acx4 and catalase
# Source text: According to phylogenetic and structural analysis, KsCcr belongs to the ECR-1 subfamily of enzymes that are mainly restricted to short-chain enoyl-CoAs. To increase the substrate scope of reductive aldol reactions, the inventors sought to use a more promiscuous enzyme. To that end, a triple variant of Caulobacter crescentus crotonyl-CoA carboxylase/reductase (CcCcrC146P/1169A/F373G, here CcCcrPAG) was employed that had been engineered to accept a variety of enoyl-CoAs, including short- and long-chain, branched, aromatic, bulky and halogenated analogs. Six different enoyl-CoA substrates (FIG. 4) were synthesized and tested in combination with four different aldehydes (formaldehyde, acetaldehyde, propionaldehyde, benzaldehyde) and by LC-MS.
# Assays were performed in 100 mM K2HPO4 pH=8.0 at 30° C. and 10 μL samples were taken at different time points and quenched with 1 μL of 50% formic acid. The samples were spinned at 17000 g for 10 min at 4° C. to precipitate the protein and then analyzed by LC-MS.
# Determination of CoA esters was performed using a HRES-LC-MS. […]
# [2] = system: crotonyl-CoA carboxylase/reductase obtained from Caulobacter crescentus (CcCcr); assay: First empirical data on reductive aldol reaction by CcCcr; format: biochemical
# Sequence of crotonyl-CoA carboxylase/reductase obtained from Caulobacter crescentus (CcCcr) (as listed by the source): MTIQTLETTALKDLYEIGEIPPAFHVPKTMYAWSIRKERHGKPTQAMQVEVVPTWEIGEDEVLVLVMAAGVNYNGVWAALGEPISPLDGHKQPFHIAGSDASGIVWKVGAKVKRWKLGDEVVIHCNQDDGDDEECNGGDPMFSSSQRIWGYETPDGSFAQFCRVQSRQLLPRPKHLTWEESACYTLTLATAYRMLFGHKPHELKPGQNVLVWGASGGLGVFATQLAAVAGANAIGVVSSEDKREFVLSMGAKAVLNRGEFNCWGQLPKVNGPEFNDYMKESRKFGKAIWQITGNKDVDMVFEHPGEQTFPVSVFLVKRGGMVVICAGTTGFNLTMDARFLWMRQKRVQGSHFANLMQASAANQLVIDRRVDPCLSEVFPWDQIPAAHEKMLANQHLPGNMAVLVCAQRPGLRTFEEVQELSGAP
molecule,measurement,setting,value
"C/C=C/C(=O)SCCNC(=O)CCNC(=O)[C@H](O)C(C)(C)COP(=O)(O)OP(=O)(O)OC[C@H]1O[C@@H](n2cnc3c(N)ncnc32)[C@H](O)[C@@H]1OP(=O)(O)O [Crotonyl-CoA, crotonyl-CoA]",Kcat,[1],30 s⁻¹ and 30 ± 1 s⁻¹
B1,conversion of enoyl-CoAs to aldol products,CcCcrPAG,catalyzed conversion of all the tested enoyl-CoAs
B2,ability to catalyze a reductive aldol reaction,[2],able to catalyze a reductive aldol reaction
